Results as given in the nanobody polyreactivity screen of Harvey et al. (2022).

Experiment: yeast display, Sf9 membrane polyspecificity reagent, FACS + sequencing; frameworks hold sequencing errors
In short: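 In a synthetic yeast display library (Saccharomyces cerevisiae BJ5465), nanobody expression was induced with galactose for 36–48 hours. FACS gates were set low and high (top ~1%) using anti-HA fluorescence for expression and streptavidin fluorescence for binding of the Sf9 membrane reagent. Each polyreactivity label is drawn from the gate of origin.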
In the case of “QVQLVESGGGLVEAGGSLRLSCAASGRTFRYYAMGWYRQAPGKVREFVAAISTSGGRTYYADSVKGRFTISRDNAKNTVYLQMNSLKPEDTAVYYCAAVSAPRFGMDYLGQGTQVTVSS”, the “polyreactivity (PSR sort gate)” value is reported as “high polyreactivity”.
For “QVQLVESGGGLVQAGGSLRLSCAASGLIFSYYAMGWYIQAPGKERVLVAAISGVGSTNYADSVKGRFTISRDNEKNTVYLQMNSLKPEDTAVYYCAARFVLRRDYGYWGQGTQVTVSS”, the “polyreactivity (PSR sort gate)” value was “high polyreactivity”.
With “QVQLVESGGGLVQAGGSLRLSCAASGLTFSENAMGWYRQAPGKERELVAAISWSGTTTYYADSVKGRFTISRDNAKNTVYLQMNSLKPEDTAVYYCAADTIFYGYWGQGTQVTVSS” the “polyreactivity (PSR sort gate)” value was “low polyreactivity”.
For “QVQLVESGGGLVQAGGSLRLSCAASGSTFIYYTMGWYRQAPGKERELVAAINGGGGSTYYADSVKGRFTISRDNAKNTVYLQMTSLKPEDTAVYYCATDPWHRAWGYGWGYNYWGQGTQVTVSS”, the “polyreactivity (PSR sort gate)” value was “low polyreactivity”.
For “QVQLVESGGGIVQAGGSLRLSCAASGRTFIRYTRGWYRQAPGKERELVGSIRYSGASTSYADSVKGRFTISRDNAKNTVYLQMNSLKPEDTAVYYCAARFGRYSHRYYYWGQGTQVTVSS”, the “polyreactivity (PSR sort gate)” value was “high polyreactivity”.
In the case of “QVQLVESGGGLVQAGGSLRLSCAASGFTFSRYTMGWYRQAPGKERELVAAITSVGSTYYADSVKGRFTISRDNAKNTVYLQMNSLKPEDTAVYYCARTYSTWYYYWGQGTQVTVSS”, the “polyreactivity (PSR sort gate)” value is reported as “high polyreactivity”.
In the case of “QVQLVESGGGLVQAGGSLRLSCDASGFTVVIYTMGWYRQAPGKERELVAAINWSGASTYYADSVKGRFTISRDNAKNTVYLQINSLKPEDTAVYYCNRVYVQQDFPYKIYPYNYWGQGTQVTVSS”, the “polyreactivity (PSR sort gate)” value is reported as “high polyreactivity”.
With “QDQLVESGGGLDQAGGSLRLSCAASGRIFARYAMGWYRLAPGKERELVAALSRGGSTKYADSVKGRFTISRDNAKNTVYLQLHSLQQEDTAVYYCARQLWGSQYGAYYAGDYWGQVTQVTVSS” the “polyreactivity (PSR sort gate)” value was “low polyreactivity”.
For “QVQLVESGGGLVQAGGSLRLSCAASGGTFWSYAMGLYRQAPGKEREFVAAITTSAGRTNFADSVKGRFTISRDNAKNTFYLQMNSLKPEDTAVYYCAARSAYPGLGYGFDYWGQGTQVTVSS”, the “polyreactivity (PSR sort gate)” value was “low polyreactivity”.
For “QVQLQESGGGLVQAGGSLRLSCSATGTIFTDRFMGWYRQAPGKERELVAGISPGTSTNYADSVKGRFTISRDNAKNTVYLQMNSLKPEDTAVYYCAADWSTGNTLPYWGQGTQVTVSS”, the “polyreactivity (PSR sort gate)” value was “high polyreactivity”.
For “QVQLVESGGGLVQAGGSLRLRCAASGSIFNSYAMGWYRQAPGKERELVAAISIRGTRTYYADSVKGRFTISRDNAKNTVYLQMNSLKPEDTAVYYCAADASYTEGMDYWGQGTQVTVSS”, the “polyreactivity (PSR sort gate)” value was “high polyreactivity”.
With “QVLLQESGGGLVQAGGSLRLSCAASGNIFSAGGMGWYRQAPVNERELVAGIGTGTSTNYADSVKGRFTISRDNAKNTVYLQMNILKPEDTAVYYCAAAYYSGLSHWYWGQGTQVTVSS” the “polyreactivity (PSR sort gate)” value was “low polyreactivity”.
For “QVQLVESVGGLVKAGGSLRLSCAASGFIFYRYTMGWYRQDPGKERELVAGISSRGTRTYYADSVKGRFTISRDNAKNTVYLQMNSLKPEDTAVYYCAAVLTQPKKVNYWGQGTQVTVSS”, the “polyreactivity (PSR sort gate)” value was “high polyreactivity”.
With “QVQLVESGGGLDQAGGSLRLSCAASGSIFGYYAMGWYRQAPGKERELVAAISWSDGSTYYADSVKGRFTISRDNAKNTVYLQMNSLKPEDTAVYSCAARFTPYITSDDGHYDYWGQGTEVTVSS” the “polyreactivity (PSR sort gate)” value was “low polyreactivity”.
For “QVQLVESGGGLVQAGGSLRLSCAASGSIFRLYAMGWYRQAPGKEREFVARIRWRGGCTNYADSVKGRITISRDNAKNTVYLQMNTLKPEDTAVYYCAVKGAGGPKYDYWGHGTQVTVSS”, the “polyreactivity (PSR sort gate)” value was “high polyreactivity”.
In the case of “QVKIVESGGGLVQAGGSLRLSCAASGSTYYYYSMGWYRQAPGKERELVAAITGSGTSTYYADSVKGRFTISRDNAKNTVYLQMNSLKPEYTAVYYCAAEYPWYYYIDVSYTDYGYWGQGTQVTVSS”, the “polyreactivity (PSR sort gate)” value is reported as “high polyreactivity”.
With “QVQLVESGGGLVQAGGSLRLSCAASGRIFTIYAMGWYRQAPGKERELVATISSNVGSTYYADSVKGRFTISRDNAKNTVYLQMNSLKPEDTAVYYCAATRRAGFTTAKFDYWGQGTQVTVSS” the “polyreactivity (PSR sort gate)” value was “high polyreactivity”.
In the case of “QVHLVESGGGLVQAGGSLRLSCAASGFTFESYAMGWYRQAPGKERELVAAISDGGGDTYYADSVKGRFTISRDNAKNTVYLQMNSLKQEDTAVYYCAAEWDGNWYRGAGGYDYWGQGTQVTVSS”, the “polyreactivity (PSR sort gate)” value is reported as “low polyreactivity”.
With “QVQLVESGGGLVQAGGSLRLSCAASGFIFPHYAMGGYRQAPGKERELIAAISKSGDSTYYADSVKGRFTISRDNAKNTVYLQMNSLKPEDTAVYYCARRGRSLRWKYDYWGQGTQVTVSS” the “polyreactivity (PSR sort gate)” value was “low polyreactivity”.
With “QVQVVESGGGLVQAGGSLSLSCAASGSTVGKYAMGWYRPAPGKERELVASITWSGASTFYADSVKGRFTISRDTAKTTVYLQLNSLKPEDTAVYYCAARSYKSYYIFDYWGQGTQVTVSS” the “polyreactivity (PSR sort gate)” value was “low polyreactivity”.
For “QVQLVESGGGLVQAGGSLRLSCAASGLTFYRNAMGWYRQAPGKERELVAAITKSGARTYYAVSVKGRFTISRDNAKNTVYLQMNSLKPEDTAVYYCAADALNTYYYWGQGTQVTVSS”, the “polyreactivity (PSR sort gate)” value was “high polyreactivity”.
In the case of “QVQLQERGGGLVQAGGSLRLSCAASCTIFRFRYMGWHRQAPGKERELVAGINGGTTTYYADSVIGRFTISRDNAKNTLYLQMNSLKPDDTAVYNCAAVASRLTYYDYWGQGTQVTVSS”, the “polyreactivity (PSR sort gate)” value is reported as “low polyreactivity”.
With “QVQLVESGGGLVHAGCSLPLTCAASGSTLDANAMGSYRQAPGKEMELVAAISSGGITYYADSVKGRFTFSRDNAKSTVYLQMNCLKPEDTAGYYCANRGQGFQFGRDYWGQGTQVTVSS” the “polyreactivity (PSR sort gate)” value was “low polyreactivity”.
In the case of “QVQLVESGGGLVQAGGSLRLSCAASGFTFTPYAMGWYRQAPGKERELVAAISWSDVRTYYADSVKGRFTISRDNAKNTVFLQMNSLKPEDTAVYYCAAEFYFYSWSEYDYWGQGTQVTVSS”, the “polyreactivity (PSR sort gate)” value is reported as “high polyreactivity”.
With “QVQLVESGGGLVQAGGSLRLSCAASGRTFGSYAMGWYRQAPGTERELVAAITWSGTGTYYADSVKGRFTISRDKAKNTVYLQMHSLKPEDTAVYYCNTDRWYAYDWGQGTQVTVSS” the “polyreactivity (PSR sort gate)” value was “high polyreactivity”.
With “QVQLVESGGGLVQAGGSLRLSCAASGLIFWYNAMGWDRQATGKEREFVAAITSDGGRTYYADSVKGRFTISRDNAKNTVYLQMNSLKTEDTAVYYCTARGYGYLGRKGGYSYGYYYWGQGTQVTVSS” the “polyreactivity (PSR sort gate)” value was “low polyreactivity”.
For “QVQLVESGGGLVQAGGSLRLSCAASGRTFYTYGMGWYRQAPGKERELVAAITETGDSTYYADSVKGRFTISRDNAKNTVYLQMNSLKPEDTAVYYCAADYRAPLDYWGQGTQVTVSS”, the “polyreactivity (PSR sort gate)” value was “low polyreactivity”.
With “QVQLVESGGGLVQAGGILRLSCAASGSTIEFNAMGWYRPAPGKERELVAAISGSGASTYYADSVKGRFTISRDNAKNTVYLQMNSLTPEDTAVYYCNADSLYYDYQTVVVQALDYWGQGTQVTVSS” the “polyreactivity (PSR sort gate)” value was “low polyreactivity”.
In the case of “QVQLVESGGGLVQAGGSLRLSCAASGRTFAYNTMGWYRQAPGKERELVAVISSGGRTYYADSGKGRFTMSRDNAKNTVYLQMNSLKPEDTAVYYCAADGYPYKYDYWGQGTQVTVSS”, the “polyreactivity (PSR sort gate)” value is reported as “high polyreactivity”.
With “QVQLVESGGGLVQAGGSLRLSCAASGATFYLNDMGWYREAPGKERELVAAIDWSGGSTYYADSVKGRFTISRDNAKNTVYLQMNSLKPEDTAVYYCAARLVYEWRRLDYFIAWDYCGQGTQVTVSS” the “polyreactivity (PSR sort gate)” value was “low polyreactivity”.
With “QVQHVESGGGLVQAGGSLRLSCAASGSTFSPNAMGWYRQAPGKERELVAAIRWRTGTTYYADSVKGRFTISRDNAKNTVYLQMNSLKPEDTAVYYCAAVYKPPNNKYGSAWEYGYWGQGTQVTVSS” the “polyreactivity (PSR sort gate)” value was “high polyreactivity”.
In the case of “QVQLVESGGGLVQAGGSLRLSCAASGRTFTSYAMGWYRQEHGKERELVAGISSGGSTNYADSVKGRFTLSRDNAKNTVYLQMNSLKPEDTAVYYWAAGFSPGSYDAPTLAFEYWGQGTQVTVSS”, the “polyreactivity (PSR sort gate)” value is reported as “low polyreactivity”.
For “QVQLVESGGGLVQAGGSLRLSCAASGRTIYRYAMGWYRQAPGKERELVAAISRRGGSTYYADSVKGRFTISRDNAKNTVYLHMNSLKPEDSAVYYCNAPFGDVYRTDDYWGQGTQVTVSS”, the “polyreactivity (PSR sort gate)” value was “high polyreactivity”.
For “QVQLVESGGGLVQAGGSLRLSCAASGRTFIYYAMGWYRQAPGKERELVAGISRNGGRTYYADSVKGRFTISRDNAKNTVYLQMNSLKPEDTAVYYCNARTYSYRGYNYWGQGTQVTVSS”, the “polyreactivity (PSR sort gate)” value was “high polyreactivity”.
With “QVQLVESGGGLVQAGGSLRLSCAASGRTFDRNTMGWYRQAPGKERELVAAISGSSARTYYADSVKGRFTISRDNAKNTVYLQMNSLKPEDTAVYYCNAEYGARAQHYEGDSWGQGTQVTVSS” the “polyreactivity (PSR sort gate)” value was “high polyreactivity”.
For “QVQLVESGGGLVQAGGSLRLSCAASGRIFKRYAMGWYRQAPGKERELVAAISRGASTYYADSVKGRFTISRDNAKNTVYLQMNSLKPEDTAVYYCAAKGATPHYDYWGQGTQVTVSS”, the “polyreactivity (PSR sort gate)” value was “high polyreactivity”.
With “QVQLQESGGGLVQAGGSLRLSCAASGSIFDGFNMGWYRQAPGKEREFVAAISYGASTYYADSVKGRFTVSRDNAKNSVYLQMNSLKPEATAVYYCAVYDELYHVLVYWGRGTQVTVSS” the “polyreactivity (PSR sort gate)” value was “low polyreactivity”.
In the case of “QVQLVESGGGLVEAGGSLRLSCAASGSIFARYAMGWTRQAPGKERELVAAITSRGGSTYADSVKGRFTISRDNAKNTVFLQMISLIPEDTAVYYCAAATLWYYRYWTSYDYWGQGTQVTVSS”, the “polyreactivity (PSR sort gate)” value is reported as “high polyreactivity”.
With “QVQLGESGGGLVQAGGSLRLSCAPSGSTFNRFARGWYILAPGNVRELVAAISRSGGSTYYADSVKGRFTISRDNPKTTLYLQMNSLKPEDTAVYYCAADRTGHGFGYWGQGTQVTVSS” the “polyreactivity (PSR sort gate)” value was “high polyreactivity”.
With “QVHLVESGGGLVQAGGSLRISCAATGYTFLYNAMGWYRQAPGKEREFVAGIRRSVGSTYYADSVKGRFTISRDNAKNTVYLQMNSMTREDTAVYYCALVPALYRYRVGTYAYDYWGQGTQVTVSS” the “polyreactivity (PSR sort gate)” value was “low polyreactivity”.
In the case of “QVQLVESGGGLVQAGGSLRLSCASSGSTFKYYAMGWYRQSPGKERELVAAISGTGGSTYYADSVKGRFTISRDNAKNTVYLQMNCLKPEDTAVYYCNTYPYIRYDYWGQGTQVTVSS”, the “polyreactivity (PSR sort gate)” value is reported as “high polyreactivity”.
